Stoichiometry N data for one substance are collected here from PMC8940892.

Usually stoichiometry N stands for the number of molecules, sites or subunits per partner or assembly.

This assay concerns the target small capsid protein (SCP, VP26) of pseudorabies virus (pseudorabies virus (PRV), Bartha strain). The experiment in a line: cryo-EM structure.

“small capsid protein (SCP, VP26) of pseudorabies virus (natural protein)” showed a stoichiometry N of 6.
